Assay results reported in FireProtDB (doi:10.1021/bi047926u).
Values joined by “and” are separate entries in the source; they are usually repeats but may differ in a detail not shown here. Equal values may be shown once.

B1: Manganese-dependent inorganic pyrophosphatase, P37487 (parent)
chain: MEKILIFGHQNPDTDTICSAIAYADLKNKLGFNAEPVRLGQVNGETQYALDYFKQESPRLVETAANEVNGVILVDHNERQQSIKDIEEVQVLEVIDHHRIANFETAEPLYYRAEPVGCTATILNKMYKENNVKIEKEIAGLMLSAIISDSLLFKSPTCTDQDVAAAKELAEIAGVDAEEYGLNMLKAGADLSKKTVEELISLDAKEFTLGSKKVEIAQVNTVDIEDVKKRQAELEAVISKVVAEKNLDLFLLVITDILENDSLALAIGNEAAKVEKAFNVTLENNTALLKGVVSRKKQVVPVLTDAMAE

Variants of: B1
Conditions: Bacillus subtilis (strain 168); pH 7.2; Thermal; CD; TES-KOH 21 mM; KCl 4 mM; reversible: No; structure 1K23; whole UniProt chain shown

Variant	Tm
MEKILIFGQQNPDTDTICSAIAYADLKNKLGFNAEPVRLGQVNGETQYALDYFKQESPRLVETAANEVNGVILVDHNERQQSIKDIEEVQVLEVIDHHRIANFETAEPLYYRAEPVGCTATILNKMYKENNVKIEKEIAGLMLSAIISDSLLFKSPTCTDQDVAAAKELAEIAGVDAEEYGLNMLKAGADLSKKTVEELISLDAKEFTLGSKKVEIAQVNTVDIEDVKKRQAELEAVISKVVAEKNLDLFLLVITDILENDSLALAIGNEAAKVEKAFNVTLENNTALLKGVVSRKKQVVPVLTDAMAE [H9Q]	54 °C
MEKILIFGHQNPDTDTICSAIAYADLKNKLGFNAEPVRLGQVNGETQYALDYFKQESPRLVETAANEVNGVILVDHNERQQSIKDIEEVQVLEVIDHHRIANFETAEPLYYRAEPVGCTATILNKMYKENNVKIEKEIAGLMLSAIISDSLLFKSPTCTDQDVAAAKELAEIAGVDAEEYGLNMLKAGADLSKKTVEELISLEAKEFTLGSKKVEIAQVNTVDIEDVKKRQAELEAVISKVVAEKNLDLFLLVITDILENDSLALAIGNEAAKVEKAFNVTLENNTALLKGVVSRKKQVVPVLTDAMAE [D203E]	42 °C
MEKILIFGHQNPETDTICSAIAYADLKNKLGFNAEPVRLGQVNGETQYALDYFKQESPRLVETAANEVNGVILVDHNERQQSIKDIEEVQVLEVIDHHRIANFETAEPLYYRAEPVGCTATILNKMYKENNVKIEKEIAGLMLSAIISDSLLFKSPTCTDQDVAAAKELAEIAGVDAEEYGLNMLKAGADLSKKTVEELISLDAKEFTLGSKKVEIAQVNTVDIEDVKKRQAELEAVISKVVAEKNLDLFLLVITDILENDSLALAIGNEAAKVEKAFNVTLENNTALLKGVVSRKKQVVPVLTDAMAE [D13E]	44 °C and 42 °C
MEKILIFGHQNPDTDTICSAIAYADLKNKLGFNAEPVRLGQVNGETQYALDYFKQESPRLVETAANEVNGVILVDHNERQQSIKDIEEVQVLEVIDHQRIANFETAEPLYYRAEPVGCTATILNKMYKENNVKIEKEIAGLMLSAIISDSLLFKSPTCTDQDVAAAKELAEIAGVDAEEYGLNMLKAGADLSKKTVEELISLDAKEFTLGSKKVEIAQVNTVDIEDVKKRQAELEAVISKVVAEKNLDLFLLVITDILENDSLALAIGNEAAKVEKAFNVTLENNTALLKGVVSRKKQVVPVLTDAMAE [H98Q]	48 °C
MEKILIFGHQNPDTDTICSAIAYADLKNKLGFNAEPVRLGQVNGETQYALDYFKQESPRLVETAANEVNGVILVDQNERQQSIKDIEEVQVLEVIDHHRIANFETAEPLYYRAEPVGCTATILNKMYKENNVKIEKEIAGLMLSAIISDSLLFKSPTCTDQDVAAAKELAEIAGVDAEEYGLNMLKAGADLSKKTVEELISLDAKEFTLGSKKVEIAQVNTVDIEDVKKRQAELEAVISKVVAEKNLDLFLLVITDILENDSLALAIGNEAAKVEKAFNVTLENNTALLKGVVSRKKQVVPVLTDAMAE [H76Q]	59 °C
MEKILIFGHQNPDTDTICSAIAYADLKNKLGFNAEPVRLGQVNGETQYALDYFKQESPRLVETAANEVNGVILVDHNERQQSIKDIEEVQVLEVIDHHRIANFETAEPLYYRAEPVGCTATILNKMYKENNVKIEKEIAGLMLSAIISESLLFKSPTCTDQDVAAAKELAEIAGVDAEEYGLNMLKAGADLSKKTVEELISLDAKEFTLGSKKVEIAQVNTVDIEDVKKRQAELEAVISKVVAEKNLDLFLLVITDILENDSLALAIGNEAAKVEKAFNVTLENNTALLKGVVSRKKQVVPVLTDAMAE [D149E]	52 °C and 47 °C

Same assay, conditions: Bacillus subtilis (strain 168); pH 7.2; Thermal; CD; TES-KOH 21 mM; KCl 4 mM; transition: 3; reversible: No; structure 1K23; whole UniProt chain shown

Variant	Tm [°C]
MEKILIFGHQNPETDTICSAIAYADLKNKLGFNAEPVRLGQVNGETQYALDYFKQESPRLVETAANEVNGVILVDHNERQQSIKDIEEVQVLEVIDHHRIANFETAEPLYYRAEPVGCTATILNKMYKENNVKIEKEIAGLMLSAIISDSLLFKSPTCTDQDVAAAKELAEIAGVDAEEYGLNMLKAGADLSKKTVEELISLDAKEFTLGSKKVEIAQVNTVDIEDVKKRQAELEAVISKVVAEKNLDLFLLVITDILENDSLALAIGNEAAKVEKAFNVTLENNTALLKGVVSRKKQVVPVLTDAMAE [D13E]	69
